Measured values as given in US7314726B2, “Beta secretase exosite binding peptides and methods for identifying beta secretase modulators” (Bristol-Myers Squibb Company, priority 2002, dated 2008).
Where “and” joins values, the source holds several entries; their conditions need not be identical. Identical values can stand only once. Like-named read-outs stand apart in the source and are kept apart here. Square brackets hold non-standard residues; d marks the D form. Peptide text beside a SMILES is read from it. Bpa = N[C@@H](Cc1ccc(C(=O)c2ccccc2)cc1)C(=O)O; Alexa488 = Alexa Fluor 488 fluorescent label

Columns and labels:
[1] = Solubility of Bpa-mutated peptides in the competition assay; assay type: physicochemical; conditions: FIG. 11, Bpa scan; inhibition under determined
BACE [2] = molecular target: T1, BACE (Homo sapiens, UniProt P56817); test: Phage ELISA of phage-displayed peptides on immobilised BACE; assay type: binding; design: The cDNA for the catalytic domain of human BACE (residues 1-460) was PCR-amplified; human IgG1 heavy chain (C, cleaved yes); thrombin cleavage site (C); made in house; host or cells: CHO DG44 cells (stably transfected, secreted); conditions: peptides from solution phase panning; tested at pH 5.0
Target sequence in this assay (P56817 46-460 limits assumed): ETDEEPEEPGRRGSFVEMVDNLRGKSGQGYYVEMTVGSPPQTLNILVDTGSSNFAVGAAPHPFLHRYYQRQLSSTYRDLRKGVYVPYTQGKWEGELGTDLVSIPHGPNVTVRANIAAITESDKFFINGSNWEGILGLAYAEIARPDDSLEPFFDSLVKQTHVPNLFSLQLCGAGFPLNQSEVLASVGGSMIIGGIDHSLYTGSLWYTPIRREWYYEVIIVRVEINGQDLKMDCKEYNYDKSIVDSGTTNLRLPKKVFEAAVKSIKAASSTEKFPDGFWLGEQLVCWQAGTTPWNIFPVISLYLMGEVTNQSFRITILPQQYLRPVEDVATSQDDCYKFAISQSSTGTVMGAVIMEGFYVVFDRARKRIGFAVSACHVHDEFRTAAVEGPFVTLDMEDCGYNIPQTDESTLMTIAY

[3] = molecular target: T2, catalytic domain of BACE purified from E. coli cells (Homo sapiens, UniProt P56817); test: Binding of labeled EBP to BACE purified from E. coli cells; conditions: compared with BACE purified from CHO cells
T2 construct: the catalytic domain of BACE purified from E. coli cells; made in house; host or cells: E. coli
Procedure: Binding of Molecule Y1 to the catalytic domain of BACE purified from E. coli cells was carried out to determine the effect of glycosylation on the EBP binding.

[4] = molecular target: T3, catalytic domain of human BACE expressed in a CHO cell line (Homo sapiens, UniProt P56817); test: Fluorescently labeled EBP binding to BACE, fluorescence anisotropy; conditions: for Kd: pH 4.5 (50 mM acetate), 25° C., 1:1 binding model, read-out: binding constant (Kd) of labeled EBP
T3 construct: The cDNA for the catalytic domain of human BACE (residues 1-460) was PCR-amplified; human IgG1 heavy chain (C, cleaved yes); thrombin cleavage site (C); made in house; host or cells: CHO DG44 cells (stably transfected, secreted)
Procedure: An assay to evaluate the binding of BACE to EBPs labeled with a fluorescent molecule (for example, but not limited to Alexa488) was developed. This assay uses the catalytic domain of human BACE expressed in a CHO cell line (according to Example 3) and labeled EBPs such as Molecule X shown in FIG. 4. The change in fluorescent anisotropy of the EBP peptide upon binding to BACE is monitored.
Peptides were dissolved in 100% DMSO (dimethyl sulfoxide) at 10 mM concentration, and then diluted 10-fold into deionized water. The concentration of the labeled peptides was determined by their absorbance at 495 nm (ε=71000 cm^−1M^−1). The concentration of selected unlabeled peptides was determined by their Tyr absorbance at 276 nm (ε=1390 cm^−1M^−1 per Tyr residue).
The binding was carried out at pH 7.1 (PBS buffer) and pH 4.5 (50 mM acetate buffer) in the presence of 1% DMSO. Fluorescence anisotropy was measured at 25° C. in an AVIV fluorometer. The excitation and emission wavelengths were set to 495 and 519 nm, respectively. The excitation and emission slit width were 4 and 10 nm, respectively. A concentrated BACE stock was used to titrate a 300 μl solution of 10 nM labeled EBP. The final BACE concentration ranges from 10 to 5000 nM. After the addition of BACE, the solution was mixed for 10 times with a pipettor. The fluorescence anisotropy was averaged over a 5 minute period.
The change in anisotropy was plotted against the BACE concentration (see, for example, FIG. 5). The Kd of the labeled EBP as well as the initial (r0) and final anisotropy (rb) of the labeled EBP were calculated from curve fitting using the program Kaleidagraph. The equation used to fit the binding data is identical to equation 1 in Lai et al., (2000) Arch. Biochem. Biophys. 381:278-284.

BACE [5] = molecular target: T1, BACE; test: BACE cleavage assay with MCA-[…](-dnp)-COOH substrate, HPLC analysis; assay type: biochemical; conditions: 0.1 nM BACE, 25 μM substrate peptide, 60 minutes at 25° C.; read-out: IC50, inhibition of proteolytic activity of BACE
Procedure: Molecule Y3 was tested in a BACE cleavage assay using the peptide MCA-[…](-dnp)-COOH (SEQ ID NO:107) as a substrate. The assay was carried out essentially as described in Mallender et al., (2001) Mol. Pharmacol. 59:619-626 and in Marcinkeviciene et al., (2001) J. Biol. Chem. 276: 23790-23794. A concentration of 0.1 nM BACE was incubated with Molecule Y3 at various concentrations for 15 minutes before substrate peptide was added to a final concentration of 25 μM. The reaction was allowed to proceed for 60 minutes at 25° C. before it was stopped by boiling. The reaction mixture was separated on a C18 column using reverse phase HPLC (Waters, Milford, Mass.). The IC50 value was calculated using the Langmuir isotherm equation (Copeland, R. A., Enzymes: A Practical Introduction to Structure, Mechanism, and Data Analysis, (2nd ed), Wiley-VCH, New York, N.Y. (2000)).
Target sequence in this assay (P56817 46-457 limits assumed): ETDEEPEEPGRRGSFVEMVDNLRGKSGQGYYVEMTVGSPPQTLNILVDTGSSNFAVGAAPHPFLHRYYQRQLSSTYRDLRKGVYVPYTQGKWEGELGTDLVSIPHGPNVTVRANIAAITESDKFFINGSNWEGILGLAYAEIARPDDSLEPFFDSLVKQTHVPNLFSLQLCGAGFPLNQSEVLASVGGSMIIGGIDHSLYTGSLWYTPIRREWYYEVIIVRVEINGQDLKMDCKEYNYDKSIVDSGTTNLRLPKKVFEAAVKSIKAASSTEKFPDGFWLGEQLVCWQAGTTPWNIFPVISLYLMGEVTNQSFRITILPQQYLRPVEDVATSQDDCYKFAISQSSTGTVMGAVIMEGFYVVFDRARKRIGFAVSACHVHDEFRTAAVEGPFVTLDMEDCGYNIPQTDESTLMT

T3 sequence (P56817 46-460 limits assumed): as the sequence (P56817 46-460 limits assumed) above
T2 sequence (P56817 46-457 limits assumed): as the sequence (P56817 46-457 limits assumed) above

For `CC(=O)N[C@@H](Cc1ccc(O)cc1)C(=O)N1CCC[C@H]1C(=O)N[C@@H](Cc1ccc(O)cc1)C(=O)N[C@@H](Cc1ccccc1)C(=O)N[C@@H](Cc1ccc(C(=O)c2ccccc2)cc1)C(=O)N1CCC[C@H]1C(=O)N[C@@H](CC(C)C)C(N)=O` [I9B] (Ac-YPYF[Bpa]PL-NH2), which solubility [1] is on record?
The solubility was “limited solubility”.

Which solubility [1] does the source give for `CC[C@H](C)[C@H](NC(=O)[C@H](Cc1ccccc1)NC(=O)[C@H](Cc1ccc(O)cc1)NC(=O)[C@H](Cc1ccc(C(=O)c2ccccc2)cc1)NC(=O)[C@H](Cc1ccc(O)cc1)NC(C)=O)C(=O)N1CCC[C@H]1C(=O)N[C@@H](CC(C)C)C(N)=O` [P6B] (Ac-Y[Bpa]YFIPL-NH2) here?
Its solubility is “limited solubility”.

Which “phage ELISA binding to BACE” value (BACE [2]) does the source give for ETWPRFIPYHALTQQTLKHQQHT here?
Its value is “strong and specific binding”.

For “Molecule Y1: peptide YPYFIPL (BMS-593925) with C-terminal Alexa488 label, FIG. 4 (Ac-YPYFIPL-Alexa488; also: linker between peptide and Alexa488 not given here)”, which “binding affinity for E. coli expressed (non-glycosylated) human BACE” value [3] is on record?
Its value is “the same as that of human BACE purified from CHO cells”.

And the “enhancement of affinity in the presence of OM99-2” value ([4]; in the presence of 10 μM OM99-2)?
Its value is 5 fold.

And the Kd ([4]; listed as Y1)?
The Kd was 58 nM and 57 nM.

Which results are given for “Molecule Y3: analog of Molecule Y1 with different length of linker between Alexa488 and the peptide (Ac-YPYFIPL-Alexa488; also: linker between peptide and Alexa488 not given here)”?
Kd [4]: 48 nM; IC50 (BACE [5]): 731 nM

For TAEYESRTARTAPPAPTQHWPFFIRST, which “phage ELISA binding to BACE” value (BACE [2]) is on record?
Its value is “strong and specific binding”.
